Results as given in patent US20160032001A1 (APEXIGEN, published 2016).
Numbering of substitutions follows the chain as printed.

T1: human RANKL protein (human, UniProt O14788 140-317, limits assumed)
T1 sequence (looked up): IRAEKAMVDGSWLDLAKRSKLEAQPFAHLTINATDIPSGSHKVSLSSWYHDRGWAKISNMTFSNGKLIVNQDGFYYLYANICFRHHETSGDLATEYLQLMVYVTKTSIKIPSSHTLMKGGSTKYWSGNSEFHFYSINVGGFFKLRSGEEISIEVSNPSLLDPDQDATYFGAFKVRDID

T2: RANKL expressed on the surface of 293 cells (UniProt O14788 1-317, limits assumed)
T2 construct: whole, on cells; also called RANKL-transfected 293 cells; cells expressing RANKL
T2 sequence (looked up): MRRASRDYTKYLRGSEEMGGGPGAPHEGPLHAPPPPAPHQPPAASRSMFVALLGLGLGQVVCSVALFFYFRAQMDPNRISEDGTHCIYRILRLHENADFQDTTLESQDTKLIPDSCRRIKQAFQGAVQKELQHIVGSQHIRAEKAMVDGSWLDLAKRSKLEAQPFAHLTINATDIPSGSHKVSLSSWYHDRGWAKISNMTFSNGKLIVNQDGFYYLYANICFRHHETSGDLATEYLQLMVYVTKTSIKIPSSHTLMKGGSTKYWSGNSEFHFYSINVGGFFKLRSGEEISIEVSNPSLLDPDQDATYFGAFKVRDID

B1: clone 7 rabbit anti-RANKL antibody (antibody, V domains shown)
VH: QEQLKESGGGLVTPGGTLTLTCTASGFSLTTNGMSWVRQAPGKGLEWIGYIYSGGSPYYANWAKGRFTISKTSSTTVDLKMTSLTTEDTATYFCARHLSGGGWYLDIWGPGTLVTVSL
VL: DMTQTPASVEVAVGGTVTINCQASQNIGSNLAWYQQKPGQPPKLLIYGASTLASGVSSRFKGSGSGTQFTFTISDVECTDPATYYCQQAYSISNVDNPFGGGTEVVVK
B2: clone 91 rabbit anti-RANKL antibody (antibody, V domains shown)
VH: QSLEESGGRLVKPDETLTLTCTVSGSSLYNYEINWVRQAPGKGLEWIGYIDVGSGTWYASWAKGRFTISKTSTTVDLKITSPTTEDTATYFCTRKYNPMDLWGPGTLVTVSS
VL: DMTQTPASVEVAVGGTVTIKCQASQNIGSNLAWYQQKPGQPPKLLIYSTSTVASGVPSRFKGSGFGTQFTLTISGVQCDDAATYYCQQGYSAGNVNNPFGGGTEVVVK
B3: clone 37 rabbit anti-RANKL antibody (antibody, V domains shown)
VH: QSVEESGGRLVTPGTPLTLTCTVSGFSLSNDVMSWVRQAPGKGLEWIGYIWSGGSPYYANWAKGRFTISKSSSTTVDLKITSPTTEDTAAYFCARGFGSSGLNIWGPGTLVTVSL
VL: B2 VL with N26S, P41S, T49A, T51I, V52L, F65S, A92V, V95I, N96D, P98A
B4: clone 68 rabbit anti-RANKL antibody (antibody, V domains shown)
VH: QEQLKESGGGLVKPDESLTLTCTASGFSLSSNGMSWARQAPGKGLEWIGYIYAGSSPYYANWAKGRFTISKTSSTTVDLKVTSLTTEDTATYFCARHASGGGWYLAIWGPGTLVTVSL
VL: DMIQTPASVEVAVGGTVTIGCQASQSIGSNLGWYQQKPGQPPKLLIYSASTLASGVSSRFKGSGSGTEFTLTISDVECDDAATYYCQQAYSVSNVDNAFGGGTEVVVK
B5: clone 147 rabbit anti-RANKL antibody (antibody, V domains shown)
VH: QSVEESGGRLVTPGTPQTLTCTVSGFSLSTDVVSWVRQAPGKGLEWIGYTWNGGATYYASWAKGRFTFSKTSTTVDLKITSPTTEDTATYFCARGYNGMDPWGPGTLVTVSS
VL: DMTQTPASVEVAVGGTVTIKCQASQNIGSNLAWYQQKPGQPPKLLISKASTLASGVPSRFKGSGSGTEFTLAISDLECADAATYYCQQGYTTKNVVNPFGGGTEVVVK
B6: clone 130 rabbit anti-RANKL antibody (antibody, V domains shown)
VH: B5 VH with Q17L, T30S, D31G, T50A, N52S, F68I, T71S, E85A
VL: B5 VL with S47Y, K61R, N94D, V95L
B7: clone 565 rabbit anti-RANKL antibody (antibody, V domains shown)
VH: B1 VH with Q3D, V12I, A24G, T30S, T31S, N32D, G55S
VL: DMIQTPASVSEPVGGTVTINCQASQNIGSNLAWYQQKPGQPSKLLIYKASTLASGVPSRFKGSGSGTDFTLTISDLECADAATYYCQQAYTISNVDNAFGGGTEVVVK
B8: clone 238 rabbit anti-RANKL antibody (antibody, V domains shown)
VH: QEQLKESGGGLVTPGGTLTLTCTASGFSLNTNAMSWVRQAPGKGLEWIGYIYSGGSPYYANWAKGRFTISRTSTTVHLKMTSLTTEDTATYFCASHTSGGGWYLDIWGPGTLVTVSL
VL: B1 VL with T3I, A49T, S65F, P81A, I92T, N94K, V95I, P98A
B9: clone 246 rabbit anti-RANKL antibody (antibody, V domains shown)
VH: QSVKESGGGLVTPGGTLTLTCTASGLSLSGNGMSWVRQAPGKGLEWIGYIYSGSSPYYASWAKGRFTISKTSSTTVDLKMTSLTTEDTATYFCARHTSGGGWYLDIWGPGTLVTVSL
VL: B4 VL with G20N, G32A, E68D, F69Y, D79T, V92I, D96E, A98P
B10: clone 256 rabbit anti-RANKL antibody (antibody, V domains shown)
VH: QSLEESGGRLVTPGTPLTLTCTVSGFSLSKYEINWVRQAPGKGLEWIGYIDVGSGTWYASWAKGRFTISKTSTTVALRITSPTTEDTATYFCSRQYNPMDLWGPGTLVTVSS
VL: B2 VL with V11A, P41R, T49A, V52L, F65S, A92V, P98A
B11: clone 220 rabbit anti-RANKL antibody (antibody, V domains shown)
VH: B10 VH
VL: B2 VL with V11A, P41R, T49A, V52L, F65S, A92V, P98A
B12: clone 227 rabbit anti-RANKL antibody (antibody, V domains shown)
VH: B2 VH with S26F
VL: B2 VL
B13: clone 270 rabbit anti-RANKL antibody (antibody, V domains shown)
VH: B3 VH with N30S, E45D, S55R
VL: B2 VL with S29Y, S48G, T49A, V52L, F65S, A92V, G93S, V95I, N96D, P98A
B14: clone 383 rabbit anti-RANKL antibody (antibody, V domains shown)
VH: QSLEESGGDLVKPGASLTLTCTASGFSFSRYVCWVRQAPGKGLEWIGCIAAGSSGYTYYASWAKGRLTISKTSSTTLTLQMTSLTVADTATYFCARSGDSYVGYFNLWGPGTLVTVSS
VL: IVMTQTPASVEAAVGGTVTIKCQASQNIYNYLAWYQQQPGQPPKLLIYSASNLASGVSSRFKGSGSGTEFTLTISDLECGDAATYYCQSYYDSSRISYGSAFGGGTEVVVK
B15: clone 318 rabbit anti-RANKL antibody (antibody, V domains shown)
VH: B1 VH with E2D, T30G, T31S, G55S, N61S, R96G, L98A, S99K
VL: B4 VL with I3T, E10S, V11A, G20N, S48G, E68H, T70A, L71F, D79T, S93G
B16: clone 379 rabbit anti-RANKL antibody (antibody, V domains shown)
VH: B8 VH with G26R, N30I, T31N, N32I, A33G, K43R, H77D, S95R, T97A, G99D
VL: B1 VL with T3I, N26S, G48L, A53P, S57P, P81A, S91T, I92A, P98A
B17: clone 299 rabbit anti-RANKL antibody (antibody, V domains shown)
VH: QSLEESGGRLVTPGTPLTLTCTVSGIDLSSSLMTWVRQAPGKGLEWIGYIWSGGAPFYASWAKGRFTISKTSSTTVDLKMTSLTTEDTATYFCAARYTDSGFDALDPWGPGTLVTVSS
VL: DMTQTPASVEAAVGGTVTIKCQASQSIGSYLSWYHQKPGQPPKLLIYRASTLASGVPSRFKGSGSGTQFTLTISDLECADAATYYCQQGYSANVDNAFGGGTEVVVK
B18: clone 388 rabbit anti-RANKL antibody (antibody, V domains shown)
VH: B5 VH with Q17L, T30S, D31G, T50A, N52S, A55P, S60N, F68I, T71S, E85A
VL: B5 VL with S47Y, K61R, N94D

molecular target: T1, human RANKL protein; assay: competition ELISA: RANKL (0.5 ug/ml) pre-incubated with the antibody, then binding to coated human RANK (8 ug/ml) detected; blocked partner RANK

**Q.** For B1, which IC50 is on record?
**A.** The IC50 was 0.0699 µg/mL.

**Q.** With B2 as the binder, how does the IC50 read?
**A.** The IC50 was 0.0645 µg/mL.

**Q.** With B3 as the binder, how does the IC50 read?
**A.** The IC50 was 0.0436 µg/mL.

**Q.** With B4 as the binder, how does the IC50 read?
**A.** Its IC50 is 0.0766 µg/mL.

**Q.** For B5, which IC50 is on record?
**A.** Its IC50 is 0.0706 µg/mL.

**Q.** Which IC50 does the source give for B6 here?
**A.** Its IC50 is 0.078 µg/mL.

molecular target: T1, human RANKL protein; assay: surface plasmon resonance

**Q.** For B2, which Kd is on record?
**A.** The Kd was 0.589 nM.

**Q.** What about the koff of the same binder?
**A.** Its koff is 0.000273 s⁻¹.

**Q.** And the kon?
**A.** The kon was 464000 M⁻¹ s⁻¹.

molecular target: T2, RANKL expressed on the surface of 293 …; assay: flow cytometry (MFI) on RANKL-transfected 293 cells

**Q.** With B7 as the binder, how does the EC50 read?
**A.** Its EC50 is 0.0831 µg/mL.

molecular target: T1, human RANKL protein; assay: competition ELISA: RANKL (0.5 ug/ml) pre-incubated with the antibody, then binding to coated human RANK (8 ug/ml) detected; blocked partner RANK; remark: another data set of the same source

**Q.** With B8 as the binder, how does the IC50 read?
**A.** The IC50 was 0.0596 µg/mL.

**Q.** Which IC50 does the source give for B9 here?
**A.** The IC50 was 0.486 µg/mL.

**Q.** Which IC50 does the source give for B10 here?
**A.** The IC50 was 0.0508 µg/mL.

**Q.** Which IC50 does the source give for B11 here?
**A.** The IC50 was 0.0648 µg/mL.

**Q.** With B12 as the binder, how does the IC50 read?
**A.** The IC50 was 0.0643 µg/mL.

**Q.** For B13, which IC50 is on record?
**A.** The IC50 was 0.058 µg/mL.

molecular target: T1, human RANKL protein; assay: cell-based or functional assay

**Q.** Which “IC50 in a RAW cell assay (TRAP activity, OD 405 nM)” value does the source give for B2 here?
**A.** The value was 4.88 ng/mL.

**Q.** With B14 as the binder, how does the “IC50 in a RAW cell assay (TRAP activity, OD 405 nM)” value read?
**A.** Its value is 2 ng/mL.

molecular target: T1, human RANKL protein; assay: competition ELISA: RANKL (0.5 ug/ml) pre-incubated with the antibody, then binding to coated human RANK (8 ug/ml) detected; blocked partner RANK; remark: another data set of the same source

**Q.** How did the IC50 turn out when B15 was run?
**A.** Its IC50 is 0.0624 µg/mL.

**Q.** With B16 as the binder, how does the IC50 read?
**A.** The IC50 was 0.0614 µg/mL.

**Q.** Which IC50 does the source give for B17 here?
**A.** The IC50 was 0.0907 µg/mL.

**Q.** How did the IC50 turn out when B18 was run?
**A.** Its IC50 is 0.161 µg/mL.

**Q.** For B14, which IC50 is on record?
**A.** Its IC50 is 0.0621 µg/mL.

molecular target: T2, RANKL expressed on the surface of 293 …; assay: flow cytometry (MFI) on RANKL-transfected 293 cells; remark: another data set of the same source

**Q.** Which EC50 does the source give for B8 here?
**A.** Its EC50 is 0.2 µg/mL.

**Q.** Which EC50 does the source give for B9 here?
**A.** Its EC50 is 1 µg/mL.

**Q.** How did the EC50 turn out when B15 was run?
**A.** Its EC50 is 0.164 µg/mL.

**Q.** For B16, which EC50 is on record?
**A.** The EC50 was 0.221 µg/mL.

**Q.** B10 was tested. Which EC50 did it give?
**A.** Its EC50 is 0.135 µg/mL.

**Q.** For B11, which EC50 is on record?
**A.** Its EC50 is 0.153 µg/mL.

**Q.** B12 was tested. Which EC50 did it give?
**A.** The EC50 was 0.0858 µg/mL.

**Q.** Which EC50 does the source give for B13 here?
**A.** The EC50 was 0.0751 µg/mL.

**Q.** For B17, which EC50 is on record?
**A.** Its EC50 is 0.207 µg/mL.

**Q.** How did the EC50 turn out when B18 was run?
**A.** Its EC50 is 0.665 µg/mL.

**Q.** For B14, which EC50 is on record?
**A.** The EC50 was 0.15 µg/mL.

molecular target: T2, RANKL expressed on the surface of 293 …; assay: as above; remark: another data set of the same source

**Q.** With B1 as the binder, how does the EC50 read?
**A.** Its EC50 is 0.248 µg/mL.

**Q.** For B2, which EC50 is on record?
**A.** Its EC50 is 0.0664 µg/mL.

**Q.** B3 was tested. Which EC50 did it give?
**A.** The EC50 was 0.137 µg/mL.

**Q.** B4 was tested. Which EC50 did it give?
**A.** The EC50 was 0.185 µg/mL.

**Q.** How did the EC50 turn out when B5 was run?
**A.** Its EC50 is 0.0721 µg/mL.

**Q.** B6 was tested. Which EC50 did it give?
**A.** Its EC50 is 0.21 µg/mL.
